Measured values from PMC5095173, “Disulfide-activated protein kinase G Iα regulates cardiac diastolic relaxation and fine-tunes the Frank–Starling response” (Nature Communications, 2016).

B1: Acadvl pT513 (protein, UniProt P45953 41-655, looked up)
Very long-chain specific …: ASEATQAVLEKPETLSSDASTREKPARAESKSFAVGMFKGQLTTDQVFPYPSVLNEGQTQFLKELVGPVARFFEEVNDPAKNDSLEKVEEDTLQGLKELGAFGLQVPSELGGLGLSNTQYARLAEIVGMHDLGVSVTLGAHQSIGFKGILLYGTKAQKEKYLPRVASGQALAAFCLTEPSSGSDVASIRSSAVPSPCGKYYTLNGSKIWISNGGLADIFTVFAKTPIKDAATGAVKEKITAFVVERSFGGVTHGLPEKKMGIKASNTSEVYFDGVKVPAENVLGEVGDGFKVAVNILNNGRFGMAATLAGTMKAIIAKAVDHATNRTQFGDKIHNFGVIQEKLARMAILQYVTESMAYMLSANMDQGFKDFQIEAAISKIFGSEAAWKVTDECIQIMGGMGFMKEPGVERVLRDIRIFRIFEGTNDILRLFVALQGCMDKGKELTGLGNALKNPLGNVGLLIGEASKQLRRRTGIGSGLSLSGIVHPELSRSGELAVQALEQFATVVEAKLMKHKKGIVNEQFLLQRLADGAIDLYAMVVVLSRASRSLSEGYPTAQHEKMLCDSWCIEAATRIRENMASLQSNPQQQELFRNFRSISKAMVENGGLVTSNPLRV
modifications: phosphorylated at T513
B2: Wbp11 pS600 (protein, UniProt Q5PQQ2 1-641, looked up)
WW domain-binding protein 11: MGRRSTSSTKSGKFMNPTDQARKEARKRELKKNKKQRMMVRAAVLKMKDPKQIIRDMEKLDEMEFNPVQQPQLNEKVLKDKRKKLRETFERILRLYEKENPDIYKELRKLEVEYEQKRAQLSQYFDAVKNAQHVEVESIPLPDMPHAPSNILIQDIPLPGAQPPSILKKTSAYGPPTRAVSILPLLGHGVPRLPPGRKPPGPPPGPPPPQVLQMYGRKVGFALDLPPRRRDEDMLYSPELAQRGHDDDMSSTSEDDGYPEDMDQDKHDDSTEDSDTDRSDAESDGDEFGHRDDSERDNTEEKKSGLSVRFADMPGKSRKKKKNMKELTPLQAMMLRMAGQEIPEEGREVEEFSEEEDDDDSEDSEAEKPSQKQHKEDSHADGSSAASSQQQAPPQAVPPSQIQAPPMPGPPPLGPPPAPPLRPPGPPTGLPPGPPPGAPPFLRPPGMPGIRGPLPRLLPPGPPPGRPPGPPPGPPPGLPPGPPPRGPPPRLPPPAPPGIPPPRPGMMRPPLVPPLGPAPPGLFPPAPLPNPGVLSAPPSLIQRPKADDASAATIEKKATATISAKPQITNPKAEVTRFVPTALRVRRENKGATAVPQRRSEEDSAVPVAKAAPRSGPSVPVSVQTKDDVYEAFMKEMEGLL
modifications: phosphorylated at S600
B3: Hadhb pS198 (protein, UniProt Q60587 35-475, looked up)
Trifunctional enzyme subunit …: SAPAVQTKSKKTLAKPNLKNIVVVEGVRIPFLLSGTSYKDLMPHDLARAALSGLLYRTNIPKDVVDYIIFGTVIQEVKTSNVAREAALGAGFSDKTPAHTVTMACISSNQAMTTAVGLIASGQCDVVVAGGVELMSDVPIRHSRNMRKMMLDLNKAKTLAQRLSLLTKFRLNFLSPELPAVAEFSTNETMGHSADRLAAAFAVSRMEQDKYALRSHSLAKKAQDEGHLSDIVPFKVPGKDTVSKDNGIRPSSLEQMAKLKPAFIKPYGTVTAANSSFLTDGASAMLIMSEDRALAMGYKPKAYLRDFIYVSQDPKDQLLLGPTYATPKVLEKAGLTMNDIDAFEFHEAFSGQILANFKAMDSDWFAQNYMGRKTKVGAPPLEKFNIWGGSLSLGHPFGATGCRLVMAAANRLRKDGGQYALVAACAAGGQGHAMIVEAYPK
modifications: phosphorylated at S198
B4: Hdlbp pS74 (protein, UniProt Q9Z1A6 2-1268, looked up)
Vigilin: SSVAVLTQESFAEHRSGLVPQQIIVATLNSEEESDPPTYKDAFPPLPEKAACLESAQEPAGAWSNKIRPIKASVITQVFHVPLEERKYKDMNQFGEGEQAKICLEIMQRTGAHLELSLAKDQGLSIMVSGKLDAVMKARKDIVARLQTQASATVPIPKEHHRFVIGKNGEKLQDLELKTATKIQIPRPDDPSNQIKITGTKEGIEKARHEVLLISAEQDKRAVKRLEVEKAFHPFIAGPYNRLVGEIMQETGTRINIPPPSVNRTEIVFTGEKEQLAQAVARIKKIYEEKKKKTTTIAVEVKKSQHKYVIGPKGNSLQEILERTGVSVEIPPSDSISETVILRGEPEKLGQALTEVYAKANSFTVSSVSAPSWLHRFIIGKKGQNLAKITHQMPKVHIEFTEGEDKITLEGPTEDVNVAQEQIEGMVKDLINRMDYVEINIDHKFHRHLIGKSGANINRIKDQYKVSVRIPPDSEKSNLIRIEGDPQGVQQAKRELLELASRMENERTKDLIIEQRFHRTIIGQKGERIREIRDKFPEVIINFPDPAQKSEIVQLRGPKNEVEKCTKYMQKMVADLVENSYSISVPIFKQFHKNIIGKGGANIKKIREESNTKIDLPAENSNSETIVITGKRANCEAARSRILSIQKDLANIAEVEVSIPAKLHNSLIGTKGRLIRSIMEECGGVHIHFPVEGSGSDTVVIRGPSSDVEKAKKQLLHLAEEKQTKSFTVDIRAKPEYHKFLIGKGGGKIRKVRDSTGARIIFPAAEDKDQDLITIIGKEDAVREAQKELEALIQNLDNVVEDYMLVDPRHHRHFVIRRGQVLREIAEEYGGVMVSFPRSGTQSDKVTLKGAKDCVEAAKKRIQEIIEDLEAQVTLECAIPQKFHRSVMGPKGSRIQQITRDYNVQIKFPDREENPVHSVEPSIQENGDEAGEGREAKETDPGSPRRCDIIVISGRKEKCEAAKEALEALVPVTIEVEVPFDLHRYIIGQKGSGIRKMMDEFEVNIHVPAPELQSHTIAITGLAANLDRAKAGLLDRVKELQAEQEDRALRSFKLSVTVDPKYHPKIIGGKGAVITQIRLEHDVNIQFPDKDDGNQPQDQITITGYEKNTEAARDAILKIVGELEQMVSEDVPLDHRVHARIIGARGKAIRKIMDEFKVDIRFPQSGAPDPNCVTVTGLPENVEEAIDHILNLEEEYLADVVDSEALQVYMKPPAHEESKAPSKGFVVRDAPWTSNSSEKAPDMSSSEEIPTFGAQVAPKTLPWGPKR
modifications: phosphorylated at S74
B5: Pfkfb2 pS486 (protein, UniProt Q9JJH5 2-557, looked up)
6-phosphofructo-2-kinase/fruct …: SENSTFSTEDSSSSSYKPHASNLRRAGKKCSWASYMTNSPTLIVMIGLPARGKTYVSKKLTRYLNWIGVPTKVFNLGVYRREAVKSYKSYDFFRHDNEEAMKIRKQCALVALEDVKAYFTEESGQIAVFDATNTTRERRDMILNFAKQNAFKVFFVESVCDDPDVIAANILEVKVSSPDYPERNRENVMEDFLKRIECYKVTYQPLDPDNYDKDLSFIKVMNVGQRFLVNRVQDYIQSKIVYYLMNIHVHPRTIYLCRHGESEFNLLGKIGGDSGLSLRGKQFAQALKKFLEEQEIQDLKVWTSQLKRTIQTAESLGVTYEQWKILNEIDAGVCEEMTYSEIEQRYPEEFALRDQEKYLYRYPGGESYQDLVQRLEPVIMELERQGNVLVISHQAVMRCLLAYFLDKGADELPYLRCPLHIIFKLTPVAYGCKVETITLNVEAVDTHRDKPTHNFPKSQTPVRMRRNSFTPLSSSNTIRRPRNYSVGSRPLKPLSPLRALDMQEGADQPKTQVQQGSAQATEHLQKALEFANGHREVENVLAKHRRPSMASLTLLS
modifications: phosphorylated at S486
B6: Plcg1 pS1233 (protein, UniProt P10686 2-1290, looked up)
1-phosphatidylinositol …: AGVGTPCANGCGPSAPSEAEVLHLCRSLEVGTVMTLFYSKKSQRPERKTFQVKLETRQITWSRGADKIEGSIDIREIKEIRPGKTSRDFDRYQEDPAFRPDQSHCFVILYGMEFRLKTLSLQATSEDEVNMWIKGLTWLMEDTLQAATPLQIERWLRKQFYSVDRNREDRISAKDLKNMLSQVNYRVPNMRFLRERLTDFEQRSGDITYGQFAQLYRSLMYSAQKTMDLPFLETNTLRTGERPELCQVSLSEFQQFLLEYQGELWAVDRLQVQEFMLSFLRDPLREIEEPYFFLDELVTFLFSKENSVWNSQLDAVCPETMNNPLSHYWISSSHNTYLTGDQFSSESSLEAYARCLRMGCRCIELDCWDGPDGMPVIYHGHTLTTKIKFSDVLHTIKEHAFVASEYPVILSIEDHCSIAQQRNMAQHFRKVLGDTLLTKPVDIAADGLPSPNQLKRKILIKHKKLAEGSAYEEVPTSVMYSENDISNSIKNGILYLEDPVNHEWYPHYFVLTSSKIYYSEETSSDQGNEDEEEPKEASGSTELHSSEKWFHGKLGAGRDGRHIAERLLTEYCIETGAPDGSFLVRESETFVGDYTLSFWRNGKVQHCRIHSRQDAGTPKFFLTDNLVFDSLYDLITHYQQVPLRCNEFEMRLSEPVPQTNAHESKEWYHASLTRAQAEHMLMRVPRDGAFLVRKRNEPNSYAISFRAEGKIKHCRVQQEGQTVMLGNSEFDSLVDLISYYEKHPLYRKMKLRYPINEEALEKIGTAEPDYGALYEGRNPGFYVEANPMPTFKCAVKALFDYKAQREDELTFTKSAIIQNVEKQDGGWWRGDYGGKKQLWFPSNYVEEMINPAILEPEREHLDENSPLGDLLRGVLDVPACQIAIRPEGKNNRLFVFSISMPSVAQWSLDVAADSQEELQDWVKKIREVAQTADARLTEGKMMERRKKIALELSELVVYCRPVPFDEEKIGTERACYRDMSSFPETKAEKYVNKAKGKKFLQYNRLQLSRIYPKGQRLDSSNYDPLPMWICGSQLVALNFQTPDKPMQMNQALFMAGGHCGYVLQPSTMRDEAFDPFDKSSLRGLEPCVICIEVLGARHLPKNGRGIVCPFVEIEVAGAEYDSTKQKTEFVVDNGLNPVWPAKPFHFQISNPEFAFLRFVVYEEDMFSDQNFLAQATFPVKGLKTGYRAVPLKNNYSEDLELASLLIKIDIFPAKENGDLSPFSGTSLRERASDASSQLFHVRAREGSFEARYQQPFEDFRISQEHLADHFDSRERRAPRRTRVNGDNRL
modifications: phosphorylated at S1233

Tested on: PKGIα (analogue-sensitive M438G), disulfide-activated
Assay: Chemical genetic phosphoproteomic screen, disulfide-activated PKGIα M438G versus unactivated control
Assay type: biochemical, human PKGIα; substrates in rat heart homogenate
Conditions: Group 2 (disulfide-activated) vs Group 3 (control)
Outline: (§1)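 Substrates in rat left-ventricle homogenate (20 mg ml) are labelled by engineered Met438Gly PKGIα given a bulky N6-alkylated ATPγS analogue, either as disulfide-activated M438G (oxidized, DTT-free) or as cGMP-activated C42S/M438G. Covalent capture and LC–MS/MS identify sites relative to unactivated kinase.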

Row | Molecule | log2 fold changes
1 | B1 | -0.899
2 | B2 | 2.503
3 | B3 | 0.04396
4 | B4 | 0.4352

Same assay, conditions: control = PKGIα C42S/M438G

Row | Molecule | log2 fold change Disulfide vs Control
5 | B5 | -0.4793
6 | B6 | 1.819

Tested on: PKGIα (analogue-sensitive C42S/M438G), cGMP-activated
Assay: Chemical genetic phosphoproteomic screen, cGMP-activated PKGIα C42S/M438G versus unactivated control
Assay type: biochemical, human PKGIα; substrates in rat heart homogenate
Conditions: Group 1 (cGMP-activated) vs Group 3 (control)
Outline: as §1

Row | Molecule | log2 fold changes
7 | B1 | 3.595
8 | B2 | 4.049
9 | B3 | 3.435
10 | B4 | 3.955

Same assay, conditions: control = PKGIα C42S/M438G

Row | Molecule | log2 fold change cGMP vs Control
11 | B5 | 0.2997
12 | B6 | 4.5
